Two molecules from publication doi:10.1101/2022.07.27.501708 (bioRxiv, 2022) can be followed below.

This assay deals with SARS-CoV-2 WT RBD (SPR analyte) (SARS-CoV-2, Wuhan-Hu-1, UniProt P0DTC2). Nature of the assay: SPR. On the technique in general: In SPR one partner is held on a chip, and binding of the other changes the refractive index at the surface.

B1: EH8 IgG (antibody, V domains shown)
VH: QVQLVQSGAEVKKPGASVKVSCKASGYTFSSYGISWVRQAPGQGLEWMGWISPYNGNTKYPQKFQGRVTMTTDTSTNTAYMELRSLRSDDTAVYYCARDLELGGGFDYWGQGTLVTVSS
VL: QSALTQPASVSGSPGQSITISCTGTSSDVGSYNLVSWYQQHPDKAPKFMIYEGTKRPSGVSNRFSGSKSGNTASLTISGLQAEDEADYYCCSYAGNSTWVFGGGTKLTVL
By Kd is commonly meant the constant that tells how readily two partners part at equilibrium. Higher therefore signals weaker binding. What is called kon is the second-order rate constant of association. A higher kon goes with faster complex formation. Take B1: the Kd lay within 1.3 to 7.22 nM and the kon lay in the range of 403000 to 837000 M⁻¹ s⁻¹.

B2: EH3 IgG (antibody, V domains shown)
VH: EVQLVESGGGLVQPGGSLRLSCAASGITVSSNYMTWVRQAPGKGLEWVSVIYSGGSTFYADSVRGRFTISRDNSKNTLYLQMNSLRAEDTAVYYCARDLEMAGAFDIWGQGTMVTVSS
VL: not shown
B2: the Kd is 0.83 to 2.79 nM and the on-rate (kon) was 83200 to 274000 M⁻¹ s⁻¹.
